{
  "source": "paper PMC1904107",
  "target": "caldesmon(302–564) (UniProt Q05682)",
  "assay": "fluorescence cross-correlation spectroscopy",
  "data": [
    {"substance": "CaM(1–149) (from UniProt P0DP23 1-149) (natural protein)", "values": [
      {"measurement": "Kd", "result": 0.5, "unit": "µM"}
    ]}
  ]
}
